target: Human FcRn (human) (UniProt P55899); assay: BLI; human FcRn immobilised, antibody or ADC as analyte; performed as previously reported (refs. 35, 36); no conditions told
Sequence of UniProt P55899 (P55899 24-365): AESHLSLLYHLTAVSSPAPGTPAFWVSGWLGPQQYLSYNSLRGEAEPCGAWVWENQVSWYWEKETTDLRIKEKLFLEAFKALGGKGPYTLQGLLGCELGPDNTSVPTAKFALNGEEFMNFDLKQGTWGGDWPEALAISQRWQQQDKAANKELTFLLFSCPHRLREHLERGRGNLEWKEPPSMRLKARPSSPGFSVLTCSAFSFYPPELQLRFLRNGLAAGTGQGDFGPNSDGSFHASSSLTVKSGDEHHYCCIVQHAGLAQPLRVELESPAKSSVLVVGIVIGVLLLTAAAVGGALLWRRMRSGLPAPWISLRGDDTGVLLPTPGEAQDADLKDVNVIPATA

| Substance | Kd [nM] | koff [s⁻¹] | kon [M⁻¹ s⁻¹] |
| --- | --- | --- | --- |
| Trastuzumab (Herceptin), human IgG1 (antibody) | 5.65 | 0.00377 | 667000 |
| Trastuzumab-K248-MMAE (5a) (antibody) | 5.6 | 0.000848 | 152000 |
| Trastuzumab-K288-MMAE (5b) (antibody) | 7.22 | 0.00383 | 530000 |

Reference: publication PMC10119932
